This is an account of results in the DeepSol protein solubility set.

This data set is described as follows: soluble on expression in E. coli; label from the status in PepcDB or PDB records.
“MNNLYPYGAPDSNLYARKQEEYDQQIAEAILAGIKREATAIELYRRLADEAPSEQHQHDIRQALENKQASLTQFTNAYRILTGQQPQLEVDDVSFYRFHEGLQKAYEIEVEGYEEYERSSALTENPHVQHAFWTALNTEYENTTRLYRSLHEEADHRVTDHGPRPFVVNIEDETKRNRAFRRALWTGDHLQVTLMSIQVGEDIGLEIHPHLDQFLRVEEGRGLVQMGHRQDNLHFQEEVFDDYAILIPAGTWHNVRNTGNRPLKLYSIYAPPQHPHGTVHETKAIAMAAEEHHHL”: the “soluble on expression in E. coli” value is reported as “soluble”.

For the sequence “MNNNELYVSLDLGTSNTKVIVGEMTGDSLNIIGVGNVPSEGLKKGSIVDIDETVHSIRKAFDQAERMVGFPLRKAIVGVNGNYINIQDTNGVVAVSSENKEIQVEDVRRVMAAAQVVSVPHEQLIVDVIPKQFIVDGRDEITDPKKMLGVRLEVEGTLITGSKTILHNLLRCVERAGIEITDICLQPLAAGSAALSKDEKNLGVALIDIGGGSTTIAVFQNGHLTSTRVIPLGGENITKDISIGLRTSTEEAERVKKQLGHAYYDEASEDEIFEVTVIGTNQKQTFTQQEAANIIEARVEEILEIVSEELRSMGITDLPGGFVLTGGQAAMPGVMSLAQDVLQNNVRVQGPNYIGVRDPQYMTGVGLIQFACRNARIQGRKIGFKMPEEAIQEIAVSSSEEQEQHHHQNEVQQRPKGKQKTQAEHNKQSKMKKLLSMFWE”, the “soluble on expression in E. coli” value is listed as “not soluble”.

As for “MNNSEGLKSFQQSLADLPQWVSERLLQQINQLTNYEPVIGIMGKTGVGKSSLCNALFAGDISPVSDVAACTREPLRFRLQVGDRYITLMDLPGVGESGARDTEYAALYREQLPRLDLVLWLIKADDRALTVDEHFYHQVIGEVYRHKVLFVISQSDKAEPTSGGGQLSTAQKQNISRKICLLHELFQPVHPVCAVSVRLQWGLKVMAERMIKCLPREATSPVVSQLHPSFRTTVVREQARSDFGETVGAVLDSISAFPLIPAPVRAVIQAVRTTVVSVARAVWDFFF”, the “soluble on expression in E. coli” value is on record as “soluble”.

“MNNSLSDKYNSSSTTLCSSVHAESCPTDTEDAIIRNIKLPGFRGNISRALSQKSNSPSGCRTPTPKTAPPSYEQFQVLRRNSMKSSVQPQRNGILSPAPPVPTSSRANTITVNGAHVQQAMNRIDMSTDSANTILRSPYSTRSDSITSVDSGQCSGDQIERRSNCSTRQESKDDDDTGMPSYARMASTMDHVLRTSSALYTLLSSALDPATCRDLLAKSSVFIQLLESSPCTNYLPKTEMARLKMNVQELQKNRDKGIIDMNNMTNFFAILLRKSIESVLLVFVRIISKNLCESNGKDRLTPICLEHLIHICLFGDELCIEAIQKGCISSVIRIMKNDQPQENTLRFLLRTLAVLCGVSKGALALLTQGGLDLVIDRLLSISSSICSVEAAGILTQLTNPQSAFIRLNHVEPIISRLLDLIDQCKSGDSLLLATAALNNVTLQNPNGVDIMYRNNSIRRLISAYNRENCATVFVQEQIVTAFSRLAARHLDHQMVDQNAIPVLLEFLSLTHPIHADYCRRIRYKAAVCIGTLANSEIGLKALYGNNAYAILSNVLYDDNNSSNPFNMICNNIRTKLESKYQSESAV”: the “soluble on expression in E. coli” value is given as “not soluble”.

Take “MNNTVKTDGDSVSGRDLPITKISEDRFERSAYSAQLANIICDVAPWGASTVFSLTGQWGSGKTSLVNLIRSEESLSNEKWTIVDFNPWVASDPQSLIEEFYRVIVGTVPDDKTGQKIKTVLQKTFSTIGSIAGGVGGFGVLEALALSKGVDAANAVYKTWKQEQDSWPTLYTRAANHFKDLNKRILIVVDDIDRLHTDELALLMKVIRLLGRFPQVNYLLVYEEESLLTTLARSTAVGGSEDDALRFMEKIVQYPFDVPPLTSFQIEKELSALFDKLFQGVSLSGDPEDFALVKSRMFDVWEKTLVTPRLLHRFAALLTNWTRIYGSGEVNGVDLTILATIRIVFPSVYKRLSRAKEVLLQGGRTTGLEHHHHHH”: the “soluble on expression in E. coli” value is listed as “soluble”.

For the sequence “MNQLCRAVPSLRSAVRLASSGRLYTKKHEWVLVENGVGTVGITDFATEQLGDVVFIELPDEGTEISKGDSTGAVESVKAASDIYAPISGTVTQKNVKLEEEAGLINKSPFEKGWLYKLKVKSADELEKLLNEEQYAKFKKDEEAAH”, the “soluble on expression in E. coli” value was “not soluble”.

On to “MNQNDNRIFRKEDLDWKELETIGIHKEELEKSGDMELLLQGEETETVPLKIRTSALRLTMDATLRITVGTDGKPVMEINGISPEAESEAGG”, for which the “soluble on expression in E. coli” value was “not soluble”.

For the sequence “MNQTDTSPIRLRRSWNTSEIEALFDEHAGRIDPRIYTDEDLYQLELERVFARSWLLLGHETQIRKPGDYITTYMGEDPVVVVRQKDASIAVFLNQCRHRGMRICRADAGNAKAFTCSYHGWAYDTAGNLVNVPYEAESFACLNKKEWSPLKARVETYKGLIFANWDENAVDLDTYLGEAKFYMDHMLDRTEAGTEAIPGVQKWVIPCNWKFAAEQFCSDMYHAGTTSHLSGILAGLPEDLEMADLAPPTVGKQYRASWGGHGSGFYVGDPNLMLAIMGPKVTSYWTEGPASEKAAERLGSVERGSKLMVEHMTVFPTCSFLPGINTVRTWHPRGPNEVEVWAFTVVDADAPDDIKEEFRRQTLRTFSAGGVFEQDDGENWVEIQHILRGHKARSRPFNAEMSMDQTVDNDPVYPGRISNNVYSEEAARGLYAHWLRMMTSPDWDALKATR”, the “soluble on expression in E. coli” value is reported as “soluble”.

As for “MNRFILSAFLLVAIFAISDAAVAQQQVKDGEKVEIDAFKGAKAIKRTVAGGDQIFHLDGDNKGSFVDAKGKKIESTNYEANNGILIIKKFTKADVGTYSEHPAKNTETKHADGSISAVPGLTLDISLQ”, the “soluble on expression in E. coli” value was “soluble”.

On to “MNRILLYVHFNKYNKISAHVYYQLEQMRSLFSKIVFISNSKVSHEDLKRLKNHCLIDEFLQRKNKGFDFSAWHDGLITMGFDKLEEFDSLTIMNDTCFGPIWEMAPYFENFEEKKAVDFWGITNNRGTKAFKEHVQSYFMTFKNQVIQNKVFQQFWQSIIEYENVQEVIQHYETQLTSILLNEGFSYQTVFDTRKAESSFMPHPDFSYYNPTAILKHHVPFIKVKAIDANQHIAPYLLNLIRETTNYPIDLIVSHMSQISLPDAKYLLSQKYLNCQRLAKQTCQKVAVHLHVFYVDLLDEFLTAFEDWNFHYDLFITTDSDIKRKEIKEILQRKGKTADIRVTGNRGRDIYPMLLLKDKLSQYDYIGHFHTKKSKEADFWAGESWRKELIDMLVKPADSILSAFETDDIGIIIADIPSFFRFNKIVNAWNEHLIAQEMMSLWRKMDVKKQIDFQAMDTFVMSYGTFVWFKYDALKSLFDLELTQNDIPSEPLPQNSILHAIERLLVYIAWGNSYDFRIVKNPYELTPFIDNKLLNLREDEGAHTYVNFNQMGGIKGALKYIIVGPAKAMKYIFLRLMEKLKLEHHHHHH”, for which the “soluble on expression in E. coli” value is listed as “soluble”.

Regarding “MNRLPNIAKPPQKSNQRKEKAPPEVPALIADKDRGTYYEKGRFLGKGGFAHCYELTNRATREVVAGKVVPKSMLVKQYQRDKMTQEVQIHRELGHINIVKLFNFFEDNLNVYITLELCARRSLMELHKRRKAVTEPEARYFTHQIVDGVLYLHDLNIIHRDMKLGNLFLNDDLVVKIGDFGLATTVNGDERKKTLCGTPNYIAPEVLNKAGHSFEVDIWAVGCILYILLFGQPPFESKSLEETYSRIRHNNYTIPSIATQPAASLIRKMLDPEPTRRPTAKQVQRDGFFKSGFMPTRLPVSCLTMVPKFGGHETSMMEENVAPRGVDARSQRPLNGRAGLSALPQHIVSNNADRERAQQQAAEATFREPEDAYLSQLFHQVAVLLEQRIPGLEEEEAALDGYQSPECLPVFWISKWVDYSDKYGIGYQLCDNSVGVLFNDNSRIMLDQAGNELTYIEKSNKEHYFSMHSGEMPGLLNKKVTLLKYFRSYMNDHLVKAGEGSEQRAGDDLARLPTLRVWFRTKSAIVLHLSNGTVQINFFNDHVKMMMCPLMQAVTFIDQNKRMLTYKLNNLQRNGCPEKFLHRLKYAKTMIERLMSDANVVSQNPARQPDMPRSMAAARSASAGSRGPNQAASHLPQSASGSNIHPRR”, the “soluble on expression in E. coli” value is “not soluble”.

In the case of “MNRVQSGFRVPARVLNSLAHLQDGLNIFMDPDWRQIRHVDDWALAITMESAELIDSYPWKWWKNVKAQTDMHNVRIEIADILHFSLSGEIQKRTQDEKGADDVALKSLKEMGFFCRPPAHAKSTAASGQRTNGGDGDGDDELLELMFFPLTEVASAVATFRNIIQLASIYRFDLITKGLLLAAQDLDFNLVGYYVAKYTLNQIRQLKGYKEGVYVKVREGVEDNELLHECVQSVSVEDVLNEGTYLKAWEKIACSVFDAFGMPEEERRHAYDWLKSAALDGKG”, the “soluble on expression in E. coli” value is “soluble”.

As for “MNRYRQLAELFKTQIQQNTWRAGEKLPSVRVTSRNHSVSAGTVLQAYQLLEAQGWVAAKPQSGYFVTAELDRLEPSPPATSVYRSNINDELYDYLKNQASPDAMKFGSAFPDPALFPLDALNRNLASSGRKMGPETLLDNLPPGSESLRRLIAQRYIQQGMVLTHDDIVITSGALEALNLSLQAVTQPGDTIVVESPTFYGALQAIERLGLKAIEISVDPRIGHSLQQIEAAFTDHDVRACWLMTNFHNPTGMSLNDEQKQRIVELADKHDVYLIEDDVYSELYFSNKKPSSLRTFDTQDRVLHCGSFSKSLCPGYRLGWVVNKRFNEHLQKLQLISTLSGSAPIQQGIAHYLQNDSYDNHLRKLRKNLEQRQSTFIELIGKYFPKSIHYTQPEGGYFLWVELPESKCGKAIYQKLLEDNITVAFGKLFSVGTDYENYLRLNTSLPCNDELEEAVKTIGELLH”, the “soluble on expression in E. coli” value is on record as “not soluble”.

In the case of “MNSDAEMNTEDGGSSPEEFGEADCFSEEEDEEIVLDTSDNDTSYAKEDKKSENEVLDNDLLEAEMNTTIADVQAVLQVDPGVCRILLHKYKWNKESLLERLYEHPDTIAFLIDAQVIPRQQEVIPAGDAECDICCSMDELSGLSCNHRACAECWQAYLTNKIVSDAQSEIECMAPNCKLLIEDEKVLAYIKDPTIIAKYRKMMVASYIEINALLKWCPGVDCGRTVKVSHGEPRLVVCTCGSRFCFSCGQDWHEPVNCRLLKLWMKKCNDDSETSNWINSNTKECPKCMATIEKNGGCNQITCKNTGCKFQFCWMCLGPWTVHANAWYKCNKFDDEASQTARTAQELYRANLTRYLFYYNRYMGHLQSLRLEGKLNKTVKAKMDQMQNLSMSWIDVQFLRKAVDVLSECRNTLMFTYIFAFYLKRDNNSMIFESNQKDLEMETEQLSGLLERDLENEDLLTLKQKVQDTFRYVEHRRKVLLDHCAEGTEQDIWQYNE”, the “soluble on expression in E. coli” value is listed as “not soluble”.

As for “MNSKCHCVILNDGNFIPVLGFGTALPLECPKSKAKELTKIAIDAGFHHFDSASVYNTEDHVGEAIRSKIADGTVRREDIFYTSKVWCTSLHPELVRASLERSLQKLQFDYVDLYLIHYPMALKPGEENFPVDEHGKLIFDRVDLCATWEAMEKCKDAGLTKSIGVSNFNYRQLEMILNKPGLKYKPVCNQVECHPYLNQMKLLDFCKSKDIVLVAYGVLGTQRDGGWVDQNSPVLLDEPVLGSMAKKYNRTPALIALRYQLQRGIVVLNTSLKEERIKENMQVFEFQLSSEDMKVLDGLNRNMRYIPAAIFKGHPNWPFLDEY”, the “soluble on expression in E. coli” value is recorded as “soluble”.

Consider “MNSPNILLDSFKIALVKKDSKQAFSLIERLSLEQIKSLDLDALLSLKEMIAQSIELLEKEKEELQLQMHKAKKIQKFLS”, for which the “soluble on expression in E. coli” value is listed as “not soluble”.

On to “MNSRMSKLRRSISRSVFQLNSSLSRQNSLNGLVDLPTMSNTTLVDKFATPSNFRQLRDLIRNNNELLAEVVTAFEEKAALDFHYSKTLKKISIRLHKLTQSVESGIDKGWTNVAEQFDIHATIHSNLGSAITEDIIQPLRSIQSNQQKTIRAADNFVEREIRKLKDKKDETQKMKRSLYVLAKELEKTENSAEREKAQPEKFALRRKKYKDQMIRSEDDYVWQTVDLEKQRRMTENVLRKGVESMESVERQRLAHCQTALGRYKRKIETLGPNLRQMFERHSNNLELAVDSVPEDYIQTIQPSTSAVNHITLIDLHAENFGEVMSSTRRRQNLERVSGVLDSELKRLYNNQTADVMVSNSKQISVLEFIEYLYYKLNDSINIVDGGQNRGFHRLSRFQHKIKDKSGLPMTILTIPLSGDNNSLPPPCLSMEASTAYPSPRGSGEYEEYEKISDDGFYSTTTTSSNGGPIRTTTTFDEPTSSPPTICRVLYDFEPKHADEIEIREGQCVLVEDRIGDDWLIGHVISQHDNSSIDPRSGRFPTTYVSLRQ”, for which the “soluble on expression in E. coli” value is reported as “not soluble”.
